Results taken from the DeepSol protein solubility set.

Assay: soluble on expression in E. coli; label from the status in PepcDB or PDB records

| Sequence | soluble on expression in E. coli |
| --- | --- |
| MSLSSWVSESSTETDKYGKSSEGKLYGKSRLSAHPGGIFEPVPYMTSAISLFEYIRERFGYGIEILHDVHERISPIQGVWFAKQVEKYRLFFLEDLFSPEDQHYFEMVRQQCATPIAMGELYVSPNDVIPMMKNKLIDFIRIHISDIGGITPARKIATFGELMGIKTAWHGPGDTSPVGHAANLALNLNSQNFGIQEAAIFGENSKEVFPGCPELRDGMMWSNGKPGLGIDINEELAKKFPFKERVWGGAWEGHHHHHH | not soluble |
| MGSDKIHHHHHHMSYNFEEERVIKEIREKNAKRVLLQFPEGLKYFSIDIVKKLREKLPNVNFIISGEPSWGACDIAEDEAQQVNADLIIHFGHTPYTWYYPKFPTIFINAESNLDISENALHSLENDISKYNGRKISLTATLQHVRLLSKIKSFLEDKGYDIVIGKPSNRFMFDGQVLGCDYKAAEVEADIYVIVSGGLFHALGLGLATNKPTIKLDPYLQKSEDITNDVRKILKVRYGKILQALDKRSWVIIQGVKVGQNRPNMIKYFYDKLTEKGYDVFTVTNKVLTLDILRNLDRNYIDVFLVTSCPRLPIDDLYNYEKPVLTPGEAKMIINNSLEPYIFPW | not soluble |
| AVKLQESGPGILKPSQTLSLTCSFSGFSLTTYGMGVGWIRQSSGKGLEWLAHIWWDDDKYYNPSLKSRLTISKDTSRNQVFLKITSVATADTATYYCARRAPFYGNHAMDYWGQGTTVTVSSAKTTPPSVYPLAPGSAAQTNSMVTLGCLVKGYFPEPVTVTWNSGSLSSGVHTFPAVLQSDLYTLSSSVTVPSSPRPSETVTCNVAHPASSTKVDKKI | soluble |
| MCSGYFELKQMFPIIRKIFVEKSNCSSNTHHSKRSIGETAGLKTGERIVGVNGQLIYPTNTHKEVVPLMKQNAMKTTLLEVH | not soluble |
| MKVSLVIPTYNSKDLVAPCLVSLNHQRLDEADEFEVVLVDDGSTDGTGEVVDSLPLTYRIRRVYVPRTEKSCRSAARNAGIRAADGELIVFVDGDQIIDPLFVQEHIRCHRGRPAIVAIGFRDYQAPGAVDLALLERSFTPEAFPPVADQDERAQVTATLSQNMGNLATGWHFFYGCNVSVRKEHLLAVGGFDENIQKWSFEDVELGYRLHRRGLAFVHNLYSRVYHQFHPESDQERYADWRENFEYFTSKHPELEVRLQWVLDSYFDPGRTSRPSWFDAYLRFEFACRAVAERLPIGHSYEVLVVDADNLDSAEREIARVGAAHDLIVVDITDDRELPTAVQAMRTGRELLYFKEPSPELLQQAAKSFGCAALLKYAAEVLEHHHHHH | soluble |
| MNDFLNFTQQKREEPQQLVLIKYPGIVKNVDKALQTMGGLQLISQSHFNNHSLELSHTPDNPYTSRIMAERKPQDNVSSGTLHLVMKVRRKKIDPTKIKTSFLGLVNTVYTFDVMCDFQYLPLKKRVGCDTFEDLIPKLIPTDIASALSWWDASESVATPLFLPPYQFSRYLTPSTKILGRETDHTEKTKNAQKKGYGQNLRVERKALSVTVNAKEEFPLEPSQEAVDEAMFRCKHDEPHRLLRELFDERPMWTRMGLLYRTRIDDSLLRSILQKYAFYILSGPWGRLWCKFGYDPRTDRNGGLYQTIMVSFRQHGSIPERQRLKVSSDRAQTINHTADVSEPVTYMYEPGKLPRIRQMWYCVMDVRLPQAMNELVAVVENNTPPTPEEVRDKGWLPNTLLEKIRDLIKEDVARTSAELEGLMNDTAPGEEEF | not soluble |
| GPLGSMIVFVRFNSSHGFPVEVDSDTSIFQLKEVVAKRQGVPADQLRVIFAGKELRNDWTVQNCDLDQQSIVHIVQRPWRK | soluble |
| MTQATTRICILGGGFGGLYTALRLSQLPWESTPKPEIILVDQSDRFLFSPFLYELLTGELQAWEIAPPYQELLQGTGVRFHQAVVSEIDTDKQQVQLQNGLEIAYDRLVLALGGETPLDLVPGATTYAHHFRSITEVYRLEESLRVLEASETEKIRIAIVGAGYSGVELACKLADRIGEKGRFRLIEISDQILRTSPEFNRQAAKKALETRGVFIDLETKVVSIGENTISLEYKTQVDEIPVDLVIWTVGTRVAPLVKTLPLKQNQRGQITTTSKLQVLEHPEIFALGDLADCLDTEGKQVPATAQVAFQQADYTAWNIWASLTNRPLLPFRYQQLGEMMALGVDNATLTGLGIKLDGSLAYIARRLAYLYRLPTLEHQLKVGFSWLVSPIIKTLSQ | not soluble |
